Test results published in patent publication US20240117073A1, “METHODS OF TREATING NEOPLASTIC ASTROCYTOMA” (Ludwig Institute for Cancer Research Ltd., priority 2009, published 2024).
“And” between values parts separate entries of the source, which are not always exact repeats. Equal values may be shown once.

Key:
[1] = biological target: T1, sEGFR (recombinant extracellular domain, amino acids 1-621, of the wild-type EGFR) (Homo sapiens, UniProt P00533); assay: ELISA on sEGFR coated plates; assay type: binding
T1 construct: sEGFR is the recombinant extracellular domain (amino acids 1-621) of the wild-type EGFR; host or cells: CHO cells
Procedure: Two types of ELISA were used to determine the specificity of the antibodies. […] Growth Factors. 18, 11-29). Antibodies were added to wells in triplicate at increasing concentration in 2% HSA in phosphate-buffered saline (PBS).

[2] = biological target: T2, biotinylated de2-7 specific peptide (Homo sapiens, UniProt P00533, DELINS30-297G); assay: ELISA on de2-7 peptide; assay type: binding
T2 construct: purchased Auspep, Melbourne, Australia; host or cells: synthetic (Fmoc chemistry)
Source text: In the second assay, the biotinylated de2-7 specific peptide (Biotin-[…] (SEQ ID NO:5)) was bound to ELISA plates precoated with streptavidin (Pierce, Rockford, Illinois). Antibodies were bound and detected as in the first assay.

A431 xenografts = conditions: mouse, in vivo
Procedure: U87MG or A431 cells were injected on one side 7-10 days before U87MG.Δ2-7 cells were injected on the other side because of the faster growth rate observed for de2-7 EGFR expressing xenografts. Antibodies were radiolabeled and assessed for immunoreactivity as described above and were injected into mice by the retro-orbital route when tumors were 100-200 mg in weight. […] Unless indicated, groups of 5 mice were sacrificed at various time points post-injection and blood obtained by cardiac puncture. The tumors, liver, spleen, kidneys and lungs were obtained by dissection. All tissues were weighed and assayed for ^125I and ^131I activity using a dual-channel counting Window. Data was expressed for each antibody as % ID/g tumor determined by comparison to injected dose standards or converted into tumor to blood/liver ratios (i.e. % ID/g tumor divided by % ID/g blood or liver). Differences between groups were analyzed by Student's t-test.

deglycosylated sEGFR = biological target: T3, deglycosylated sEGFR (Homo sapiens, UniProt P00533); assay: immunoblot of PNGase F treated sEGFR; assay type: binding
T3 construct: sEGFR is the recombinant extracellular domain (amino acids 1-621) of the wild-type EGFR; host or cells: CHO cells
Procedure: To determine if carbohydrate structures are directly involved in the mAb806 epitope, the recombinant sEGFR expressed in CHO cells was treated with PNGase F to remove N-linked glycosylation.

[3] = test system: U87MG.wtEGFR brain xenografts; assay: systemic treatment of intracranial xenografts; design: species or system nude mice; conditions: mouse, in vivo
Procedure: U87MG.ΔEGFR cells (1×10^5) or 5×10^5 LN-Z308.ΔEGFR, A1207.ΔEGFR, U87MG, U87MG.DK, and U87MG.wtEGFR cells in 5 μl of PBS were implanted into the right corpus stratum of nude mice brains as described previously (Mishima et al. (2000) A peptide derived from the non-receptor binding region of urokinase plasminogen activator inhibits glioblastoma growth and angiogenesis in vivo in combination with cisplatin. Proc. Natl. Acad. Sci. U.S.A. 97, 8484-8489).

sEGFR = biological target: T4, sEGFR (Homo sapiens, UniProt P00533); assay: BIAcore, immobilized sEGFR; assay type: binding
T4 construct: sEGFR is the recombinant extracellular domain (amino acids 1-621) of the wild-type EGFR; host or cells: CHO cells
Procedure: In a second set of BIAcore™ experiments, sEGFR was immobilized on a CM microsensor chip at a surface density of ˜4000RU. Serial dilutions of mAbs were tested for reactivity with sEGFR.

[4] = biological target: T5, EGFR extracted from DU145 cells (Homo sapiens, UniProt P00533); assay: immunoprecipitation and immunoblot; assay type: binding
T5 construct: endogenous in cells; host or cells: DU145
Procedure: Cells were lysed with lysis buffer (1% Triton X-IOO, 30 mM HEPES, 150 mM NaCl, […] 4-(2-aminoethyl) benzenesulfonylfluoride, 150 nM aprotinin, 1 mM E-64 protease inhibitor, 0.5 mM EDTA, and 1 mM leupeptin, pH 7.4) for 20 minutes, clarified by centrifugation at 14,000×g for 30 minutes, immunoprecipitated with the relevant antibodies at a final concentration of 5 μg/ml for 60 minutes and captured by Sepharose-A beads overnight. Samples were then eluted with 2× NuPAGE® SDS Sample Buffer (Invitrogen), resolved on NuPAGE® gels (either 3-8% or 4-12%), electro-transferred onto Immobilon®-P transfer membrane (Millipore) then probed with the relevant antibodies before detection by chemoluminescence radiography.
Clearly, mAb806 and mAb175 can recognize only a small proportion of the EGFR on cells in the presence of an autocrine stimulation loop.

[5] = test system: U87MG expressing wild-type EGFR; assay: protein A mixed hemadsorption; assay type: cell-based, human; conditions: undiluted supernatant less than 10%
Procedure: As expected, the 528 antibody stained both the U87MG.Δ2-7 and U87MG.wtEGFR cell lines (FIG. 1). As expected, the 528 antibody stained U87MG.Δ2-7 with a higher intensity than the parental cell as it binds both the de2-7 and wild-type receptors that are co-expressed in these cells (FIG. 1). Similar results were obtained using a protein A mixed hemadsorption which detects surface bound IgG by appearance of […] (group O) to target cells.

U87MG.wtEGFR xenografts = assay: established xenograft model; assay type: in vivo, nude mice; conditions: day control animals were sacrificed; 1 mg injections
Procedure: Tumor cells (3×10^6) in […] of PBS were inoculated subcutaneously into both flanks of 4-6 week old female nude mice (Animal Research Centre, Western Australia, Australia). […] Treatment was continued for a total of 6 doses, 3 times per week for 2 weeks. In the established model, treatment was started when tumors had reached a mean volume of 65±6.42 mm^3 (U87MG.Δ2-7), 84±9.07 mm^3 (U87MG), 73±7.5 mm^3 (U87MG.wtEGFR) or 201±19.09 mm^3 (A431 tumors). Tumor volume in mm^3 was determined using the formula (length×width^2)/2, where length was the longest axis and width the measurement at right angles to the length (Clark et al. (2000) Therapeutic efficacy of anti-Lewis (y) humanized 3S 193 radioimmunotherapy in a breast cancer model: enhanced activity when combined with Taxol chemotherapy. Clin. Cancer Res. 6, 3621-3628). Data was expressed as mean tumor volume±S.E. for each treatment group. Statistical analysis was performed at given time points using Student's t-test. Animals were euthanized when the xenografts reached an approximate volume of 1.5 cm^3 and the tumors excised for histological examination. This research project was approved by the Animal Ethics Committee of the Austin and Repatriation Medical Centre. […]

U87MG.de2-7 cells = assay: ADCC assay; assay type: cell-based, human; conditions: E:T ratio 50:1
Procedure: PBMCs were isolated from healthy volunteer donor blood. Heparinized whole blood was fractionated by density centrifugation on Ficoll-Hypaque (ICN Biomedical Inc., Ohio, USA). PBMC fractions was collected and washed three times with RPMI+1640 supplemented with 100 U/ml penicillin and 100 μg/ml streptomycin, 2 mM L-glutamine, containing 5% heat-inactivated FCS.
CDC and ADCC assays were performed by a modification of a previously published method (Nelson, D. L. et al. (1991) In: J. E. Colignan, A. M. Kruisbeek, D. D. Margulies, E. M. Shevach, and W. Strober (eds.), Current Protocols in Immunology, pp. 7.27.1. New York: Greene Publishing Wiley Interscience). Briefly, 5×10^6 target U87MG.de2-7 and A431cells were labeled with 50 μCi^51Cr (Geneworks, Adelaide, Australia) per 1×10^6 cells and incubated for 2 hr at 37° C. The cells were then washed three time with PBS (0.05M, pH 7.4) and a fourth wash with culture medium. […]
In the first assay, labelled target cells were plated with the effector cells in 96-well “U” bottom microplates (NUNC, Roskilde, Denmark) at effector/target (E:T) cell ratios of 50:1. […] In both assays, micotitre plates were incubated at 37° C. for 4 hours, then 50 μl supernatant was harvested from each well and released ^51Cr was determined by gamma counting (Cobra II automated Gamma Counter, Canberra Packard, Melbourne, Australia). […]

wtEGFR on A431 cells = biological target: T6, wtEGFR on A431 cells (Homo sapiens, UniProt P00533); assay: Scatchard analysis on A431 cells; assay type: binding
T6 construct: A431 cells are human squamous carcinoma cells and express high levels of wtEGFR; host or cells: A431 human squamous (epidermoid) carcinoma cells
Procedure: All binding assays were performed in 1% HSA/PBS on 1-2×10^6 live U87MG.Δ2-7 or A431 cells for 90 min at 4° C. with gentle rotation. A set concentration of 10 ng/ml ^125I-labeled antibody was used in the presence of increasing concentrations of the appropriate unlabeled antibody. Non-specific binding was determined in the presence of 10,000-fold excess of unlabeled antibody. […] After the incubation was completed, cells were washed and counted for bound ^125I-labeled antibody using a COBRA II gamma counter (Packard Instrument Company, Meriden, CT, USA).

B1: mAb806: murine monoclonal antibody recognizing de2-7 EGFR and amplified EGFR; VH SEQ ID NO:2, VL SEQ ID NO:4 (antibody, listed as Mus musculus, V domains shown)
VH: MRVLILLWLFTAFPGVLSDVQLQESGPSLVKPSQSLSLTCTVTGYSITSDFAWNWIRQFPGNKLEWMGYISYSGNTRYNPSLKSRISITRDTSKNQFFLQLNSVTIEDTATYYCVTAGRGFPYWGQGTLVTVSA
VL: MVSTAQFLAFLLLWFPGARCDILMTQSPSSMSVSLGDTVSITCHSSQDINSNIGWLQQRPGKSFKGLIYHGTNLDDEVPSRFSGSGSGADYSLTISSLESEDFADYYCVQYAQFPWTFGGGTKLEIKR
[1]
  inhibition of antibody binding to immobilized sEGFR by sEGFR in solution: unable to inhibit
[1]; DH8.3 up to 10 μg/ml
  binding to immobilized wild-type sEGFR: dose-dependent and saturating binding curves
[1]; sEGFR heated 10 min at 95° C.
  inhibition of antibody binding to immobilized sEGFR by denatured sEGFR in solution: able to inhibit
[2]
  binding to unique de2-7 EGFR peptide: Neither mAb806 nor the 528 antibody bound to the peptide
A431 xenografts
  uptake expressed as % ID/g tumor: comparatively low
Deglycosylated sEGFR
  binding to deglycosylated sEGFR: clearly bound the deglycosylated material
[3]
  effect on survival: slightly extended
  median survival: 23 days
sEGFR
  reactivity with denaturated sEGFR: strongly reactive
[4]
  immunoprecipitation of EGFR: immunoprecipitate a small proportion of the EGFR
[5]
  reactivity: no significant reactivity
U87MG.wtEGFR xenografts
  mean tumor volume: 468±78.38 mm^3 and 500±80 mm^3
U87MG.de2-7 cells
  ADCC: lack of parental murine mAb806 immune effector function
wtEGFR on A431 cells
  receptors (binding sites) per cell: 2.4×10^5 receptors per cell and 2.3×10^5 receptors per cell
wtEGFR on A431 cells; average of three experiments
  affinity: 9.5e+07 M⁻¹
